Measurements published in patent publication US20190225675A1 (TUFTS UNIVERSITY, published 2019).

What was measured:
[1] = target: Clostridium difficile toxin B (TcdB) (Clostridium difficile, UniProt P18177 2-2366)
[2] = target: T1, Clostridium difficile toxin A (TcdA) (Clostridium difficile, UniProt P16154 1-2710); experiment: ELISA on plates coated with TcdA, HRP-conjugated detection antibody, A450
T1 construct: mature
T1 sequence (P16154 whole entry): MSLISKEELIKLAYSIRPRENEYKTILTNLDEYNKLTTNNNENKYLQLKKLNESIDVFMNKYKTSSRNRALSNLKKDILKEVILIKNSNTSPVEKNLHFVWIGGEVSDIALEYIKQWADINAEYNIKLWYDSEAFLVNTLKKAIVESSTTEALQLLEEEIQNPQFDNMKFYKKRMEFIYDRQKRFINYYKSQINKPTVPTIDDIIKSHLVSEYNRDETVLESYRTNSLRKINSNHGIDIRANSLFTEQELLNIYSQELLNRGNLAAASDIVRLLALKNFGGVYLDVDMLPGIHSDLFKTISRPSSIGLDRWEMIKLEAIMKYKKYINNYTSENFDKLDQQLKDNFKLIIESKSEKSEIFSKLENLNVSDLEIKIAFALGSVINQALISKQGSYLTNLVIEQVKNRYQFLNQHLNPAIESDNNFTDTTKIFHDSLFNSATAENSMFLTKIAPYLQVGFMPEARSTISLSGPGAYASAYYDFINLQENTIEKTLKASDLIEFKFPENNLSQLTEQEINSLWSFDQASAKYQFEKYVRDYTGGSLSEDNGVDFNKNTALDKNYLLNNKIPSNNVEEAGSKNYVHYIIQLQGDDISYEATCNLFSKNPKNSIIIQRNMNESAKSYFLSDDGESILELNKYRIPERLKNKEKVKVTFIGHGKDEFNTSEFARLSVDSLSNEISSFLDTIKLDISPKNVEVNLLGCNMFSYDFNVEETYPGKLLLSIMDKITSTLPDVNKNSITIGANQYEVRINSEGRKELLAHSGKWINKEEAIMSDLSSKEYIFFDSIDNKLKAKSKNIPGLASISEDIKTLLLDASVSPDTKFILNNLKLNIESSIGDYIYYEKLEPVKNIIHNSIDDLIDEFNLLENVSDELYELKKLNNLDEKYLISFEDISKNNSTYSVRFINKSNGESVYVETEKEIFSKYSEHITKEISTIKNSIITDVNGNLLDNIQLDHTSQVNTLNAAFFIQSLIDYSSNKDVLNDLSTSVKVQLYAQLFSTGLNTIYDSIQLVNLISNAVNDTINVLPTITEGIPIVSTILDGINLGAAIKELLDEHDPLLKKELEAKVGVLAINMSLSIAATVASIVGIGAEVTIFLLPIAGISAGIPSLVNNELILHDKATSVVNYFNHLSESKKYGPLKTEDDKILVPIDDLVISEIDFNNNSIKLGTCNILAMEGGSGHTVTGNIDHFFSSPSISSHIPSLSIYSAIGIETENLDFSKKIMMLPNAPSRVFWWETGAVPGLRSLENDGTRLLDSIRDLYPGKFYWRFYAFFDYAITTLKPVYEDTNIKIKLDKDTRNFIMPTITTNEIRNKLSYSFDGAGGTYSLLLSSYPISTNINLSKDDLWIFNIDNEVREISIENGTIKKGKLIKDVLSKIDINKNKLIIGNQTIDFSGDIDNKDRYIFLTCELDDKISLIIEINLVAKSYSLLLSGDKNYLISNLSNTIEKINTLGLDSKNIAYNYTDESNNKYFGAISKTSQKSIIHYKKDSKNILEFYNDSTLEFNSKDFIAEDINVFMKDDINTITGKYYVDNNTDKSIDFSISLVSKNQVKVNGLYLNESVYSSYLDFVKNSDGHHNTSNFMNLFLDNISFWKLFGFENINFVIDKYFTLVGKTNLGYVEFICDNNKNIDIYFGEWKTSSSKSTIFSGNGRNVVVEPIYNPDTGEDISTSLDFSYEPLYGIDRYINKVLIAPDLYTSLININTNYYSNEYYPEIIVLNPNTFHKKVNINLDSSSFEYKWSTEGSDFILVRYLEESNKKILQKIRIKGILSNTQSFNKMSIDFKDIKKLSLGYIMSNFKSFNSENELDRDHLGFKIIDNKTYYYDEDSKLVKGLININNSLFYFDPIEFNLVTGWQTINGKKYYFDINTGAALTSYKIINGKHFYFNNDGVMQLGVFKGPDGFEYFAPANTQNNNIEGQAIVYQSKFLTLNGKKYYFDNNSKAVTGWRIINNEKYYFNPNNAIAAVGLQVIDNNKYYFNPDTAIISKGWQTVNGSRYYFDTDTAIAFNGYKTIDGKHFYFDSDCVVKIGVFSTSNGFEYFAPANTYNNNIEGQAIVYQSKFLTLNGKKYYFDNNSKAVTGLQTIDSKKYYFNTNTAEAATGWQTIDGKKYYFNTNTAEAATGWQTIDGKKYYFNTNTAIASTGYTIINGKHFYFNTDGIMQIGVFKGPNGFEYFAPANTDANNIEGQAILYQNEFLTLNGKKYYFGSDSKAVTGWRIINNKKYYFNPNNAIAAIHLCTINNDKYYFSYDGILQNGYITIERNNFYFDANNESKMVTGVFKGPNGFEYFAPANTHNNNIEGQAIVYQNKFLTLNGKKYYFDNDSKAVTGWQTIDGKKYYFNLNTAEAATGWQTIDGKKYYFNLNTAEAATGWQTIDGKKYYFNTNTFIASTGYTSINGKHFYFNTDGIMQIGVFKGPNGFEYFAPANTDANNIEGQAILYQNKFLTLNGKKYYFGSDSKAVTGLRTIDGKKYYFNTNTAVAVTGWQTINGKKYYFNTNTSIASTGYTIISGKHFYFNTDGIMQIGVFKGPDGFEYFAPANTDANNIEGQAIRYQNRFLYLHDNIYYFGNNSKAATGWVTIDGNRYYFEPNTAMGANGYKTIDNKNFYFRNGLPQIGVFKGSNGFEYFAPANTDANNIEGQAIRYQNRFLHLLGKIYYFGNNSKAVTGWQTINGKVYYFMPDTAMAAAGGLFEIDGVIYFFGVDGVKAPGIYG

Chain of Clostridium difficile toxin B (TcdB) (P18177 2-2366): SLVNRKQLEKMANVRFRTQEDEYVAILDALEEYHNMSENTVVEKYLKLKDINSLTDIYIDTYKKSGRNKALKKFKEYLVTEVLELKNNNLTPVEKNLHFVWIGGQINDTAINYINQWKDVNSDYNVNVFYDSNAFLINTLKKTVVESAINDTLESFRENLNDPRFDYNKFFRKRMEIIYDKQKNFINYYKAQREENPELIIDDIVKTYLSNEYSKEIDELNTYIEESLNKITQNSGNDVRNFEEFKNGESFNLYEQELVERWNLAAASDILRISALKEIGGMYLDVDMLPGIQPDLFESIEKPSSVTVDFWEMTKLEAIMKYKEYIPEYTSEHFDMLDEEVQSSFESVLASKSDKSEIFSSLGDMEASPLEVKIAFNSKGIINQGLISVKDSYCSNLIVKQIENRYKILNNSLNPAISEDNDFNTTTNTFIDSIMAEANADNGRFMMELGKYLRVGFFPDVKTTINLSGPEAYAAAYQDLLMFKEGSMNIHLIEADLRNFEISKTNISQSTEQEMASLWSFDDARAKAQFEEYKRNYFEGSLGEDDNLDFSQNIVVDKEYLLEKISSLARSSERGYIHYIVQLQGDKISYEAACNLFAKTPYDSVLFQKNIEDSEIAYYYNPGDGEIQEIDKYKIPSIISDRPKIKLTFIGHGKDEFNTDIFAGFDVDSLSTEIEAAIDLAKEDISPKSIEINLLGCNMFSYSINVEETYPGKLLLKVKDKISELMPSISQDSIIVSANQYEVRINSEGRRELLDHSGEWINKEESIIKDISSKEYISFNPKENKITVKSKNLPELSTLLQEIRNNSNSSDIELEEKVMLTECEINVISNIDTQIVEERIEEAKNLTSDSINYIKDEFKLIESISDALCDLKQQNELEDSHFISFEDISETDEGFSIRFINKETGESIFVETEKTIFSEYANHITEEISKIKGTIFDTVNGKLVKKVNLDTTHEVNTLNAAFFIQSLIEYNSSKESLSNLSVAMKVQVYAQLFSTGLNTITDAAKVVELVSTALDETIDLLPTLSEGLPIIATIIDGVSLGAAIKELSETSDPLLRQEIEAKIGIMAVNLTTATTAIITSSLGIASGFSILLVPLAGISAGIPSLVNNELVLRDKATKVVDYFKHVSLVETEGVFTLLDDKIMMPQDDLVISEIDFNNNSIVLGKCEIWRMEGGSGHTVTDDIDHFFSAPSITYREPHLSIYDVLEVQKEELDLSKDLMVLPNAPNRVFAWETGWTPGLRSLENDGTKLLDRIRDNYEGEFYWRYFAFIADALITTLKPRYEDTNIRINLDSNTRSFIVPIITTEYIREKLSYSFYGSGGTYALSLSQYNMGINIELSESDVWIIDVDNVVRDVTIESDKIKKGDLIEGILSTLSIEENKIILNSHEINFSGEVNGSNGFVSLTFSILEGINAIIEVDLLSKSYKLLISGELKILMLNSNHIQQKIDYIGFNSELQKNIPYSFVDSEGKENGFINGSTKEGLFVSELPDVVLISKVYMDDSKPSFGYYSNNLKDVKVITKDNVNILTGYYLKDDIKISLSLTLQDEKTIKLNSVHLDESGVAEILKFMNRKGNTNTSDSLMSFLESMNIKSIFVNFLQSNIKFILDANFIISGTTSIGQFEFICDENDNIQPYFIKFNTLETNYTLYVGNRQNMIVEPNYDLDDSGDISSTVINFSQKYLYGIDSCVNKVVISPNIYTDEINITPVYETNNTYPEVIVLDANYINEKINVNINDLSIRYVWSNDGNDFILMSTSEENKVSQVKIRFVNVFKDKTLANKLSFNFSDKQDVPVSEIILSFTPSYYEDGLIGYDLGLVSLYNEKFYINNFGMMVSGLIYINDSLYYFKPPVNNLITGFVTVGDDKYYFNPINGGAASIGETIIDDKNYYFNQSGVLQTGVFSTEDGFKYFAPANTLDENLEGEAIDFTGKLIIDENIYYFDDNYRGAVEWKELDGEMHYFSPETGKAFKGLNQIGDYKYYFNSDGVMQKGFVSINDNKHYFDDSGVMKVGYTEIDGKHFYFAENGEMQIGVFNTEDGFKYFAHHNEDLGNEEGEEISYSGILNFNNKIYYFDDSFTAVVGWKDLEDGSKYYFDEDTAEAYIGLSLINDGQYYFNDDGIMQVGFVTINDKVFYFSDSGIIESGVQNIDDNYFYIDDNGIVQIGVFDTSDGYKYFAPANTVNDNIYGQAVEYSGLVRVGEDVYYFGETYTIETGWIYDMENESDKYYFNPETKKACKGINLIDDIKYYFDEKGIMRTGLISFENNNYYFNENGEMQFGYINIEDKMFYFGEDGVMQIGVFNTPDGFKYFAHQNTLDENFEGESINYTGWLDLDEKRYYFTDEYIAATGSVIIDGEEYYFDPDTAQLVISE

B1: VNA-TcdB (toxin B-binding heterodimer, 5D+E3) (other)
chain: QGVQSQLQLVESGGGLVQPGGSLRLSCEASGFTLDYYGIGWFRQPPGKEREAVSYISASARTILYADSVKGRFTISRDNAKNAVYLQMNSLKREDTAVYYCARRRFSASSVNRWLADDYDVWGRGTQVAVSSEPKTPKPQGGGGSGGGGSGGGGSQGVQSQVQLVESGGGLVQTGGSLRLSCASSGSIAGFETVTWSRQAPGKSLQWVASMTKTNNEIYSDSVKGRFIISRDNAKNTVYLQMNSLKPEDTGVYFCKGPELRGQGIQVTVSSEPKTPKPQ
- EC50 (read off the curve) [1]: ~0.3 nM
- binding result [2]: no binding (tested: 125 nM)
